{
  "source": "the DeepSol protein solubility set",
  "experiment": "soluble on expression in E. coli; label from the status in PepcDB or PDB records",
  "data": [
    {"sequence": "MSEEAQPITLEAFAEAIRELPLSAVYAKVSEIRNSIAHLRRSNSELKAFIDETCESESDKRELEGYIAENEGVIATMNDRIGLLKTEIESRGERWIEEEIEANIKVDGDEVSTSQPIINGTAGDERPRAHEDATRRPEDRQTNEEEGVYL", "values": [
      {"measurement": "soluble on expression in E. coli", "result": "not soluble"}
    ]},
    {"sequence": "MAHHHHHHMHLQIVCLTDEVREMYKHHKTHHEGDSGLDLFIIKDEILKPKSTTFVKLGIKAIALQYKSSYYHKSEANANANANANGKDAPVGMGGVNAKESCAPHQKNPEIVNTSYLLFPRSSISKTPLRLANSIGLIDAGYRGELIAALDNTSEEEYLIKKNDKLVQLVSFTGEPLSFELVDELDETSRGEGGFGSTSNK", "values": [
      {"measurement": "soluble on expression in E. coli", "result": "soluble"}
    ]},
    {"sequence": "RPSSVVIGTASQGGVYYIYGGGLAQLLDRELGVSSNVEVTGGPVHNMQLVNEQEQDIGMITMGPGYEGVLGEGEWTGGETYDNVRVIFPMYTTPFHWWSLESSGVTSIEDMDGMRVGVGPSGGTSGTYLPIIHEVLGLDITPVLAGANDMVSQQLDGQLDVIGFAAGLPIPAVAEVEAQRDIHLFGIDGENRDKVLEALPYFEPYTIPADTYDQLDEDLETIAMFNFGITYSEMNADFVYELVKAYHENNDLLMTTHSSAEEAVPEAILRNEVVPLHVGAIRYYEEIGIDLPESVYPAEWENE", "values": [
      {"measurement": "soluble on expression in E. coli", "result": "not soluble"}
    ]},
    {"sequence": "MGSDKIHHHHHHMSRQEQTPLFSGVVAHAKHNPVQFHIPGHKKGAGMDPAFRSFIGDNALSIDLINIGPLDDLHHPHGIIKEAQELAAEAFGADHTFFSVQGTSGAIMTMIMSVVGPGEKIIVPRNVHKSIMSAIVFSGATPVFIHPEIDPLLGISHGITIEAVEKALDAHPDAKGLLVINPTYFGIAANLKKIVELCHSRDVPVLVDEAHGVHIHFHEALPLSAMQAGADMAATSVHKLGGSLTQSSILNVREGLVSAKRVQTIISMLTTTSTSYLLLASLDAARKHLATNGRDLIGYTIQLADQARDQINAIDGLYCVGKEILGTIATYDYDPTKLIISVKNLGITGYDAEVWLREHYQIEVELSDLYNILCIVSFGDTEREMDLLVKALSELADLHKHGICERSPVSVYVPNIPTLAMSPRDAFYAETEVVPFEDSVGRTIAEFIMVYPPGIPILIPGEIITESNLAYIRENNRAGLPVQGPEDDTFRTLRVIKEHEAIR", "values": [
      {"measurement": "soluble on expression in E. coli", "result": "not soluble"}
    ]},
    {"sequence": "MSLANRKYFGTDGVRGKVGAYPITPDFALKLGWAAGKVLASQGSKMVLIGKDTRISGYMLESALEAGLAAAGLSAAFTGPMPTPAIAYLTRTFRAEAGIVISASHNPYYDNGIKFFSAKGTKLPDEIEEAIEAMLEQPMDCVESAELGKASRINDAAGRYIEFCKGTFPAHLGLEGYKIVVDCANGATYHIAPNVLRELGAEVIEIGTDPNGLNINEKCGATDVTALQAKVVETKADVGLAYDGDGDRIMMVDHLGNKVDGDQILFIIAREALRSGQLKGGVVGTLMSNMSLEIALKMLGVPFLRANVGDRYVLEKMVENDWTLGGENSGHIIIADKNTTGDGIVASLAVLAAMAQHKLSLNELASAVKLFPQVLINVRFAGGENPLESDAVKSVAAEVEKRLEGKGRILLRKSGTEPLIRVMVECQDAELAQQCAEEIAEAVKKEGHHHHHH", "values": [
      {"measurement": "soluble on expression in E. coli", "result": "soluble"}
    ]},
    {"sequence": "MAHHHHHHMWNLNRLYRQNELSMHGVRNNHDIIVVRQVNISDKNNPDNYLHNQNNTNTSIKQNPQSVILNEKELLNLVQNFNHINRKHKGFCETSIFKNSTFSNTNNEHNGEDSFNTYLIIDKWKTKREFEKSKKEFEKLFAHKNHLYDKKMEDIYLNYEMYNNNYETVSAQNIFQKLYYFIFD", "values": [
      {"measurement": "soluble on expression in E. coli", "result": "not soluble"}
    ]},
    {"sequence": "MSRLRVFRQTGWFIAGLMTGLPATAAPAEASSMAGVAVAVATTTPPDATATLQAMQSCRRESAALERLDCYDHLLAPLSPSGFDGALVKAGFVGEAWTRATEQEKRREGNTTELLVTQVPGERPTVVITTPAIGHVPPRPVLMFSCVDNITRMQVALMHPLDVHDIAVTLNADSRALRSHWFVRENGTLLESSRGLSGIDEIKQLFGAKTLTVDTGADNAAGKLTFNIDGLARAIAPLRDACHWAGE", "values": [
      {"measurement": "soluble on expression in E. coli", "result": "not soluble"}
    ]},
    {"sequence": "MSLGRNPPPAIGQFWHVTDLHLDPTYHITDDHTKVCASSKGANASNPGPFGDVLCDSPYQLILSAFDFIKNSGQEASFMIWTGDSPPHVPVPELSTDTVINVITNMTTTIQSLFPNLQVFPALGNHDYWPQDQLPVVTSKVYNAVANLWKPWLDEEAISTLRKGGFYSQKVTTNPNLRIISLNTNLYYGPNIMTLNKTDPANQFEWLESTLNNSQQNKEKVYIIAHVPVGYLPSSQNITAMREYYNEKLIDIFQKYSDVIAGQFYGHTHRDSIMVLSDKKGSPVNSLFVAPAVTPVKSVLEKQTNNPGIRLFQYDPRDYKLLDMLQYYLNLTEANLKGESIWKLEYILTQTYDIEDLQPESLYGLAKQFTILDSKQFIKYYNYFFVSYDSSVTCDKTCKAFQICAIMNLDNISYADCLKQLYIKHNYEGHHHHHH", "values": [
      {"measurement": "soluble on expression in E. coli", "result": "soluble"}
    ]},
    {"sequence": "MGSSHHHHHHSSGLVPRGSEVVIVSATRTPIGSFLGSLSLLPATKLGSIAIQGAIEKAGIPKEEVKEAYMGNVLQGGEGQAPTRQAVLGAGLPISTPCTTINKVCASGMKAIMMASQSLMCGHQDVMVAGGMESMSNVPYVMNRGSTPYGGVKLEDLIVKDGLTDVYNKIHMGSCAENTAKKLNIARNEQDAYAINSYTRSKAAWEAGKFGNEVIPVTVTVKGQPDVVVKEDEEYKRVDFSKVPKLKTVFQKENGTVTAANASTLNDGAAALVLMTADAAKRLNVTPLARIVAFADAAVEPIDFPIAPVYAASMVLKDVGLKKEDIAMWEVNEAFSLVVLANIKMLEIDPQKVNINGGAVSLGHPIGMSGARIVGHLTHALKQGEYGLASICNGGGGASAMLIQKL", "values": [
      {"measurement": "soluble on expression in E. coli", "result": "soluble"}
    ]},
    {"sequence": "MLYQPSLLKSRLTPAPPGFSFQPQPLLNSDMDPVRNLESLGNYTVYQDSSQCFWQHQNFTSNREHNPALRKTKICDHWRRSGSCSYGDACWYAHGEDDLRKVVRIDRSNEEENERPATAEIQKSPTKRASTNVKGLTVNIPSNTAFKEQNSSMPLSPAQERWISMSIGAVPPPTSSAAEKDAISSLSKNGVEQEQEKKHEICSRDDDIDDYGFLSPNPFPYPQQSMFSAGFPSHGHHQRSSNRATQGVPSQQFGGPVNIPGQDPNRLGSGAYHIPPQHQRSRSNVRTSREVGGPPPQFQQAIWNVAGEIYQRQKDIEIGGQRVGPNDRQPTQQKNSEMDRLLSKLKMKDLNYLRFMIERGYINERDVSRQTSSDQMSNGHHFNAPMTPPYHPRLAGNEPNTSDCHYHGTGNRLSNFMPGRHRPPHQHPIHHHHQSQHQLHQHQQYLHHAAQQYRYSHQQGPQHPFAALLSPPEISESLLPPDDSFSIWLEPKPKKQSGAMTRTRGAATINESSSAASLLTKMDALRSDKYPITDEEMMMANDFVRQGDRDDKLSSSESSSPVVMSLMELLSNENLLDQVATEKPKCSMFDFDTLKIAETLKEPLQSSECSTTTSSKMTCSPMFFFVDEKTPNYDGSGSKSLFTPSSSAGQTPSFLEPCDFFAATGSCPFGDACHQSHSI", "values": [
      {"measurement": "soluble on expression in E. coli", "result": "not soluble"}
    ]},
    {"sequence": "MGSDKIHHHHHHASCSNDDDEMDKYQKIYIRTGVAPGAEMGAAVVVDCVSNSSTADRSDFEIQLCAVQPVTRDVTAALGVDTLKVDTYNSANKTKCKLLPQDNYTIETSEVVLKTGQTVADSSFQVVLKNIEKLTNPDGYVLPVTLKGVTGMDEQAVSTSMKTVYIRIYTSVLYTSYTKPGNWSAVDRSAWSVSCSNVYADDDAKYGAHLAIDGEINTTWFTWGVANAGECWWNTVLDRPVTLTGFSVTKQSAYGSGYNLRSAEIKVRKEGETEWVTYPRVLTFRNFKGADPQYAAIEPPIPNVKEFRINCLTPDNYTGFAEINLYVKQ", "values": [
      {"measurement": "soluble on expression in E. coli", "result": "not soluble"}
    ]},
    {"sequence": "MGSDKIHHHHHHMTKILIVLSEWGYWGEELVGPLETFDAAGYQVDFATPNGKRPVALGVSMDPTFVDPPLGRPVTTQDMADKVRQLDDTNNPRLNNPKNLREWLPERPYWSSPKFLREMEEYYRLLDEVRQRDLQTYDAILIVGGSGPMVDLADNQRVHDLILSFYQMGKPVAAECYGVACLAFARDIGDRKSIIWGKHVTGHCLEYDYKDGTGFNGTNIDPCLNNINFGTPFYPLEYILRDATGPDGQYHGNVGRPTSVIVDYPFITGRSTPDSYLTGQKLVEVLEKGLKRYGW", "values": [
      {"measurement": "soluble on expression in E. coli", "result": "not soluble"}
    ]},
    {"sequence": "MKKLLVIRNDKIGDFMLCFPAFMMLKQSMPNIEITALVPNYTAPLAELCPAIDHLIIDNTDKQDPIAFKQVQQAVQNGQFDAVICFVSSWYNAKLTWQSGIRYRLAPATKLFQFLYNHRLTQRRSQSIKAESEYNLDLARAFLIDHHMMPVEPQLEHHHHHH", "values": [
      {"measurement": "soluble on expression in E. coli", "result": "soluble"}
    ]},
    {"sequence": "GISYSVEADPDTTAKAMLRERQMSFKHSKAIAREIKGKTAGEAVDYLEAVIEGDQPVPFKQHNSGVGHKSKVDGWDAGRYPEKASKAFLDLLENAVGNADHQGFDGEAMTIKHVAAHKVGEQQGRKPRAMGRASAWNSPQVDVELILEEPEVED", "values": [
      {"measurement": "soluble on expression in E. coli", "result": "soluble"}
    ]}
  ]
}
